Results on 2 proteins are retold here after patent US20160058880.

The target of series [1] is T1, PhAc-AIGP-doxorubicin.
T1 chain: AIGP

Series [2] concerns the target T2, PhAc-ALPF-doxorubicin.
T2 chain: ALPF

Series [3] concerns the target T3, PhAc-GPGP-doxorubicin.
T3 chain: GPGP

For series [4], the target named is T4, PhAc-DLGP-doxorubicin.
T4 chain: DLGP

The target of series [5] is T5, PhAc-ALAF-doxorubicin.
T5 chain: ALAF

The target in series [6] is T6, PhAc-ALGP-doxorubicin.
T6 chain: ALGP

The target in series [7] is T7, LGP-Dox.
T7 chain: LGP

The target in series [8] is T8, Succinyl-βALPF-doxorubicin.
T8 chain: ALPF

In series [9] the target is T9, PhAc-TSGP-doxorubicin.
T9 chain: TSGP

Series [10] addresses T10, PhAc-ALAL-doxorubicin.
T10 chain: ALAL

For series [11], the target named is T11, N-succinyl-beta-alanyl-L-leucyl-L-alanyl-L-leucyl-doxorubicin.
T11 chain: ALAL

Series [12] deals with T12, PhAc-KLGP-doxorubicin.
T12 chain: KLGP

For series [13], the target named is T13, NH2-Gly-Pro-Doxorubicin.
T13 chain: GP

B1: CD10 (recombinant human neprilysin, R&D systems, Ref 1182-ZN) (protein)
chain: DDGICKSSDCIKSAARLIQNMDATTEPCTDFFKYACGGWLKRNVIPETSSRYGNFDILRDELEVVLKDVLQEPKTEDIVAVQKAKALYRSCINESAIDSRGGEPLLKLLPDIYGWPVATENWEQKYGASWTAEKAIAQLNSKYGKKVLINLFVGTDDKNSVNHVIHIDQPRLGLPSRDYYECTGIYKEACTAYVDFMISVARLIRQEERLPIDENQLALEMNKVMELEKEIANATAKPEDRNDPMLLYNKMTLAQIQNNFSLEINGKPFSWLNFTNEIMSTVNISITNEEDVVVYAPEYLTKLKPILTKYSARDLQNLMSWRFIMDLVSSLSRTYKESRNAFRKALYGTTSETATWRRCANYVNGNMENAVGRLYVEAAFAGESKHVVEDLIAQIREVFIQTLDDLTWMDAETKKRAEEKALAIKERIGYPDDIVSNDNKLNNEYLELNYKEDEYFENIIQNLKFSQSKQLKKLREKVDKDEWISGAAVVNAFYSSGRNQIVFPAGILQPPFFSAQQSNSLNYGGIGMVIGHEITHGFDDNGRNFNKDGDLVDWWTQQSASNFKEQSQCMVYQYGNFSWDLAGGQHLNGINTLGENIADNGGLGQAYRAYQNYIKKNGEEKLLPGLDLNHKQLFFLNFAQVWCGTYRPEYAVNSIKTDVHSPGNFRIIGTLQNSAEFSEAFHCRKNSYMNPEKKCRVW
As to B1, the “cleavage by purified CD10 10 nM (grade)” value was “+” in series [1]; “-” in [2]; “-” in series [3]; “-” in [4]; “+” in series [5]; “+” in [6]. In addition, the “cleavage by purified CD10 10 nM (grade)” value was “-” in [7], “-” in series [9] and “+” in [11]. Also, the “cleavage by purified CD10 10 nM (grade; * = less than 5% of metabolites detected)” value in series [8], in series [10] and in series [12] was “-*” in each case.

B2: CD26 (protein)
chain: SRKTYTLTDYLKNTYRLKLYSLRWISDHEYLYKQENNILVFNAEYGNSSVFLENSTFDEFGHSINDYSISPDGQFILLEYNYVKQWRHSYTASYDIYDLNKRQLITEERIPNNTQWVTWSPVGHKLAYVWNNDIYVKIEPNLPSYRITWTGKEDIIYNGITDWVYEEEVFSAYSALWWSPNGTFLAYAQFNDTEVPLIEYSFYSDESLQYPKTVRVPYPKAGAVNPTVKFFVVNTDSLSSVTNATSIQITAPASMLIGDHYLCDVTWATQERISLQWLRRIQNYSVMDICDYDESSGRWNCLVARQHIEMSTTGWVGRFRPSEPHFTLDGNSFYKIISNEEGYRHICYFQIDKKDCTFITKGTWEVIGIEALTSDYLYYISNEYKGMPGGRNLYKIQLSDYTKVTCLSCELNPERCQYYSVSFSKEAKYYQLRCSGPGLPLYTLHSSVNDKGLRVLEDNSALDKMLQNVQMPSKKLDFIILNETKFWYQMILPPHFDKSKKYPLLLDVYAGPCSQKADTVFRLNWATYLASTENIIVASFDGRGSGYQGDKIMHAINRRLGTFEVEDQIEAARQFSKMGFVDNKRIAIWGWSYGGYVTSMVLGSGSGVFKCGIAVAPVSRWEYYDSVYTERYMGLPTPEDNLDHYRNSTVMSRAENFKQVEYLLIHGTADDNVHFQQSAQISKALVDVGVDFQAMWYTDEDHGIASSTAHQHIYTHMSHFIKQCFSLP
With B2, the “hydrolysis by purified CD26” value in series [6] is on record as “Neither CD26 nor FAP hydrolized either PhAc-ALGP-Dox, Suc-βALAL-Dox or LGP-Dox”; in [7], “Neither CD26 nor FAP hydrolized either PhAc-ALGP-Dox, Suc-βALAL-Dox or LGP-Dox”; in series [11], “Neither CD26 nor FAP hydrolized either PhAc-ALGP-Dox, Suc-βALAL-Dox or LGP-Dox”. Also, in [13], the “conversion to Dox after 3 h incubation at 37° C. with purified CD26” value was 97% conversion to Dox after 3 h incubation at 37 °C.
